For data set [1], the target named is T1, Alpl (alkaline phosphatase) (Mus musculus, UniProt P09242 P09242:18-501).
T1 sequence: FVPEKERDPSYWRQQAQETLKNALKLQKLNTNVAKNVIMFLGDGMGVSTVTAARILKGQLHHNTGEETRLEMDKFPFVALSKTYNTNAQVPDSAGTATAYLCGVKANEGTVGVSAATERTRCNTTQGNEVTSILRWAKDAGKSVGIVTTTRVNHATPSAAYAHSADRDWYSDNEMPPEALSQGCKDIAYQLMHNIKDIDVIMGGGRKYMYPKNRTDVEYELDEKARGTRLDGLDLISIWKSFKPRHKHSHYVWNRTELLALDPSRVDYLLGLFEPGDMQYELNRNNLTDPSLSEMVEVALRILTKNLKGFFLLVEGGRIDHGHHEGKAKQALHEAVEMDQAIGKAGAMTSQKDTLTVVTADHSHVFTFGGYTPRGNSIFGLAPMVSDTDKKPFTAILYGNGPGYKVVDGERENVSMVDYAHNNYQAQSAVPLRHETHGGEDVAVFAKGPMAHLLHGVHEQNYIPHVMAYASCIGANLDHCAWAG
Kind of data set: flow; biotinylated aptamer alone on Ext1-/- mouse ES cells; cell-surface binding. Conditions: tags: endogenous on Ext1-/- mouse embryonic stem cells; chain copies: 2; G4.

Data set [2] has as its target T1, Alpl (alkaline phosphatase). Nature of the data set: flow; Ext1-/- mouse ES cells, 40 min in suspension, 0-200 nM; binding significantly reduced after 6 days of neural differentiation. The settings on record: tags: endogenous on Ext1-/- mouse embryonic stem cells; chain copies: 2; label: AF488 (on streptavidin); G4.

For AGGTCAGATGAGGAGGGGGACTTAGGACTGGGTTTATGACCTATGCGTG (ssDNA, 5'-biotin) [Aptamer 19S], the EC50 in data set [1] was ~107 nM. Consider AGGTCAGATGAGGAGGGGGACTTAGGACTGGGTTTATGACCTATGCGTG (ssDNA, 5'-biotin, bound to streptavidin carrying biotinylated heparin (1:1:1)) [Hep-SA-19S (heparin-streptavidin-aptamer 19S chimera)], for which the EC50 in data set [2] is 70 nM.

As a reminder, the EC50 is the midpoint of the concentration-response curve. Higher therefore signals lower potency in that assay.
